Laboratory results from patent US20250049972A1, “METHOD OF DETECTING PROSTATE CANCER IN A HUMAN SUBJECT USING A Cu 64 PSMA I&T INJECTION” (Curium US LLC, priority 2023, published 2025).

Test: clinical
Details: human, in vivo, total radioactivity
Method: Radiation dosimetry estimates for normal organs were determined for copper Cu-64 PSMA I&T based on biodistribution collected from the 12 patients enrolled in the trial. Whole-body PET/CT images acquired at 1 hour (±15 minutes), 4 hours (±30 minutes), and 24 hours (±2.0 hours) post injection were used together with blood samples collected prior to and 1, 2, 4, and 24 hours post injection and total voided urine samples collected for 0 to 1-hour and 1 to 4-hour intervals post injection.
Percent injected activity as a function of time was determined for the quantified organs listed below.
First, calculating Activity Quantification in PET Images utilizing the following Equation One: […]
Use of this equation can calculate organ/tissue and whole body activity concentration levels.
Second, Normalization of PET Quantification utilizing a normalization factor to decay values using urine activity utilizing the following Equation Two:
A normalization factor can be determined and applied to the decay corrected % IA values by assuming 100% quantification of the total body activity at the first time point and assuming accurate urine activity assay according to Equation Two.

[1] = Mean % Injected Dose, GI Total Contents
[2] = Mean % Injected Dose, Heart wall
[3] = Mean % Injected Dose, Lacrimal Glands
[4] = Mean % Injected Dose, Pituitary
[5] = Mean % Injected Dose, Red Marrow
[6] = Mean % Injected Dose, Salivary glands
[7] = Mean % Injected Dose, Stomach Wall
[8] = Mean % Injected Dose, Whole Body

O=C(O)CC[C@H](NC(=O)N[C@@H](CCCCNC(=O)CCCCCCC(=O)NCCCC[C@@H](NC(=O)[C@@H](Cc1ccccc1)NC(=O)[C@@H](Cc1ccc(O)c(I)c1)NC(=O)CC[C@H](C(=O)O)N1CCN(CC(=O)O)CCN(CC(=O)O)CCN(CC(=O)O)CC1)C(=O)O)C(=O)O)C(=O)O [Cu-64 PSMA I&T, 64 Cu-(3S, 7S, 26R, 29R, 32R, 37R)-29-benzyl-32(4-hydroxy-3-iodobenzyl)-5, 13, 20, 28, 31, 34-hexaoxo-37-(4,7,10-tris(carboxymethyl)-1,4,7, 10-tetraazacyclododecan-1-yl)-4,6, 12, 21, 27, 30, 33-heptaazaheptatriacontane-1,3,7, 26, 37-pentacarboxylic acid, metal not drawn]
tissue uptake dose at 1 h (Mean % Injected Dose, Blood): 5.8 %ID | tissue uptake dose at 2 h (Mean % Injected Dose, Blood): 4.2 %ID | tissue uptake dose at 4 h (Mean % Injected Dose, Blood): 3.2 %ID | tissue uptake dose at 24 h (Mean % Injected Dose, Blood): 4.4 %ID | tissue uptake dose at 1 h [1]: 10 %ID | tissue uptake dose at 4 h [1]: 10 %ID | tissue uptake dose at 24 h [1]: 12 %ID | tissue uptake dose at 1 h [2]: 1.2 %ID | tissue uptake dose at 4 h [2]: 0.84 %ID | tissue uptake dose at 24 h [2]: 0.96 %ID | tissue uptake dose at 1 h (Mean % Injected Dose, Kidneys): 8.6 %ID | tissue uptake dose at 4 h (Mean % Injected Dose, Kidneys): 5 %ID | tissue uptake dose at 24 h (Mean % Injected Dose, Kidneys): 2.1 %ID | tissue uptake dose at 1 h [3]: 0.023 %ID | tissue uptake dose at 4 h [3]: 0.024 %ID | tissue uptake dose at 24 h [3]: 0.015 %ID | tissue uptake dose at 1 h (Mean % Injected Dose, Liver): 19 %ID | tissue uptake dose at 4 h (Mean % Injected Dose, Liver): 25 %ID | tissue uptake dose at 24 h (Mean % Injected Dose, Liver): 30 %ID | tissue uptake dose at 1 h (Mean % Injected Dose, Pancreas): 0.35 %ID | tissue uptake dose at 4 h (Mean % Injected Dose, Pancreas): 0.39 %ID | tissue uptake dose at 24 h (Mean % Injected Dose, Pancreas): 0.28 %ID | tissue uptake dose at 1 h [4]: 0.0021 %ID | tissue uptake dose at 4 h [4]: 0.0019 %ID | tissue uptake dose at 24 h [4]: 0.0017 %ID | tissue uptake dose at 1 h (Mean % Injected Dose, Prostate): 0.036 %ID | tissue uptake dose at 4 h (Mean % Injected Dose, Prostate): 0.031 %ID | tissue uptake dose at 24 h (Mean % Injected Dose, Prostate): 0.021 %ID | tissue uptake dose at 1 h [5]: 1.7 %ID | tissue uptake dose at 4 h [5]: 1.4 %ID | tissue uptake dose at 24 h [5]: 1.5 %ID | tissue uptake dose at 24 h (Mean % Injected Dose, Remainder): 52 %ID | tissue uptake dose at 1 h [6]: 1.1 %ID | tissue uptake dose at 4 h [6]: 0.95 %ID | tissue uptake dose at 24 h [6]: 0.4 %ID | tissue uptake dose at 1 h (Mean % Injected Dose, Spleen): 1.5 %ID | tissue uptake dose at 4 h (Mean % Injected Dose, Spleen): 0.54 %ID | tissue uptake dose at 24 h (Mean % Injected Dose, Spleen): 0.29 %ID | tissue uptake dose at 1 h [7]: 0.52 %ID | tissue uptake dose at 4 h [7]: 0.51 %ID | tissue uptake dose at 24 h [7]: 0.42 %ID | tissue uptake dose at 1 h (Mean % Injected Dose, Testes): 0.11 %ID | tissue uptake dose at 4 h (Mean % Injected Dose, Testes): 0.1 %ID | tissue uptake dose at 24 h (Mean % Injected Dose, Testes): 0.065 %ID | tissue uptake dose at 1 h (Mean % Injected Dose, Thyroid): 0.031 %ID | tissue uptake dose at 4 h (Mean % Injected Dose, Thyroid): 0.019 %ID | tissue uptake dose at 24 h (Mean % Injected Dose, Thyroid): 0.016 %ID | tissue uptake dose at 1 h [8]: 96 %ID | tissue uptake dose at 4 h [8]: 87 %ID | tissue uptake dose at 24 h [8]: 81 %ID | total activity recovery (whole-body PET plus urine), % of injected activity at 1 hour (sum of unnormalized activity recovery from whole body PET quantification and urinary excretion, % of the injected activity): 101%
